{"source": "paper PMC7113858", "about": "(Journal of Virological Methods, 2017)", "binders": {"B1": {"name": "MAb 45E11 (antibody, V domains shown)", "VH": "QVQLKESGPGLVAPSQSLSITCTVSGFSLTGFGVNWVRQPPGKGLEWLGMIWGDGGTDYNSTLKSRLSFSKDNSKSQVFLKMNSLQTDDTARYYCARAAGTGDYFDYWGQGTTLTVSS", "VL": "DIQMTQSPASLSASVGETVTITCRASENIYSYLAWYQQKQGKSPQLLVYNAKTLAEGVPSRFSGSGSGTQFSLKINSLQPEDFGSYYCQHHYGTPWTFGGGTKLEIK"}, "B2": {"name": "MAb 45C2 (antibody, V domains shown)", "VH": "B1 VH with F32Y, T62A, F69I, S70T, Q86L, T87P", "VL": "B1 VL with Y30D, S63G, N76Y, S85N"}, "B3": {"name": "43A9 (antibody, V domains shown)", "VH": "QVQLQQSGAELARPGASVKLSCNASGYIFSSYWMQWVKQRPGQGLEWIGAIYPGDGDTRYSQKFRGKATVTADKSSSTAYMQLSSLASADSAVYYCARFGDGYYYPMDYWGQGTSVTVSS", "VL": "DIVMTQAAPSVPVTPGESVSISCRSSKSLLHSNGNTYLYWFLQRPGQSPQLLIYRMSNLASGVPDRFSGSGSGTAFTLRISRVEAEDVGVYYCMQHLEYPFTFGSGTKLEIK"}}, "key": {"[1]": {"biological_target": "T1, mouse Fc-tagged RBD of MERS-CoV (MERS-CoV, strain not named; EMC/2012 …, UniProt K0BRG7)", "experiment": "immunostaining of cells or tissue"}, "N protein of MERS-CoV": {"biological_target": "N protein of MERS-CoV (MERS-CoV, strain , UniProt K9N4V7)", "experiment": "immunostaining of cells or tissue"}, "[2]": {"biological_target": "mouse Fc-tagged RBD of Bt-CoV-HKU4 (Bat coronavirus HKU4 (BtCoV/HKU4/2004), UniProt A3EX94)", "experiment": "immunostaining of cells or tissue"}, "[3]": {"biological_target": "mouse Fc-tagged RBD of Bt-CoV-HKU5 (Bat coronavirus HKU5 (BtCoV/HKU5/2004), UniProt A3EXD0)", "experiment": "immunostaining of cells or tissue"}, "[4]": {"biological_target": "receptor-binding domain (RBD) of the SARS-CoV S protein, amino acids 318-510, histidine-tagged (SARS-CoV, strain , UniProt P59594)", "experiment": "ELISA"}, "[5]": {"biological_target": "T1, mouse Fc-tagged RBD of MERS-CoV"}, "S protein of MERS-CoV": {"biological_target": "S protein of MERS-CoV (MERS-CoV, strain not named; EMC/2012 …, UniProt K0BRG7)"}}, "note": "Where a chain is given by its changes, count along the chain named. Like-named read-outs stand apart in the source and are kept apart here.", "data": [{"binder": "B1", "values": [{"measurement": "binding result", "setting": "[1]", "result": "binds"}, {"measurement": "binding result", "setting": "N protein of MERS-CoV", "result": "no binding"}, {"measurement": "binding result", "setting": "[2]", "result": "no binding"}, {"measurement": "binding result", "setting": "[3]", "result": "no binding"}, {"measurement": "binding result", "setting": "[4]", "result": "no binding"}]}, {"binder": "B2", "values": [{"measurement": "binding result", "setting": "[1]", "result": "binds"}, {"measurement": "binding result", "setting": "N protein of MERS-CoV", "result": "no binding"}, {"measurement": "binding result", "setting": "[2]", "result": "no binding"}, {"measurement": "binding result", "setting": "[3]", "result": "no binding"}, {"measurement": "binding result", "setting": "[4]", "result": "no binding"}]}, {"binder": "B3", "values": [{"measurement": "binding result", "setting": "[5]", "result": "binds"}, {"measurement": "binding result", "setting": "S protein of MERS-CoV", "result": "binds"}]}]}
